Drawing on publication PMC5549631, this text covers Kd, histone methyltransferase activity on acidic patch mutant nucleosomes and fold decrease of nucleosome binding affinity against Set8(153-352) for six substances.

Experiment [1] deals with recombinant nucleosome labelled with Oregon Green 488 on histone H4 Q27C (Xenopus) (UniProt P62799). As to the kind of experiment: other fluorescence titration.
The target of experiment [2] is acidic patch mutant nucleosome (H2A E61A, E64A, D90, E92A) (Xenopus) (UniProt P06897). As to the kind of experiment: other fluorescence titration.
The target is the same in experiment [3].

pKd: −log10 of the molar value.

The pKd is the Kd on a negative log10 scale, so that one unit is a factor of ten. In the case of “full length Set8 (from UniProt Q9NQR1-2 1-352) (enzyme)”, the pKd in experiment [1] is 8.28; in experiment [2], 7.22.

For “Set8(153-352) (from UniProt Q9NQR1-2 153-352) (domain or fragment)”, the pKd in experiment [1] was 8.10; in experiment [2], 5.89. The same substance yielded a histone methyltransferase activity on acidic patch mutant nucleosomes in experiment [3] of 5.4%.

For “Set8(175-352) (from UniProt Q9NQR1-2 175-352) (domain or fragment)”, the pKd in experiment [1] was 5.74.

For “Set8(153-352) R188A, R189A (from UniProt Q9NQR1-2 153-352) (domain or fragment)”, in experiment [1], the pKd was 5.60.

As for “Set8(153-352) H347F (from UniProt Q9NQR1-2 153-352) (domain or fragment)”, the pKd in experiment [1] was 8.35.

Turning to “Set8(153-352) R179A, K180A (from UniProt Q9NQR1-2 153-352) (domain or fragment)”, the fold decrease of nucleosome binding affinity against Set8(153-352) in experiment [1] is 2.5 fold.
